Test results as given in PMC10786891, “Massively parallel profiling of RNA-targeting CRISPR-Cas13d”.
Changes are numbered by the printed parent chain. Names and notes keep the numbering of the source.

T1: EsCas13d, nuclease-dead (Eubacterium siraeum, UniProt B0MS50, R295A;H300A;R849A;H854A)
T1 sequence: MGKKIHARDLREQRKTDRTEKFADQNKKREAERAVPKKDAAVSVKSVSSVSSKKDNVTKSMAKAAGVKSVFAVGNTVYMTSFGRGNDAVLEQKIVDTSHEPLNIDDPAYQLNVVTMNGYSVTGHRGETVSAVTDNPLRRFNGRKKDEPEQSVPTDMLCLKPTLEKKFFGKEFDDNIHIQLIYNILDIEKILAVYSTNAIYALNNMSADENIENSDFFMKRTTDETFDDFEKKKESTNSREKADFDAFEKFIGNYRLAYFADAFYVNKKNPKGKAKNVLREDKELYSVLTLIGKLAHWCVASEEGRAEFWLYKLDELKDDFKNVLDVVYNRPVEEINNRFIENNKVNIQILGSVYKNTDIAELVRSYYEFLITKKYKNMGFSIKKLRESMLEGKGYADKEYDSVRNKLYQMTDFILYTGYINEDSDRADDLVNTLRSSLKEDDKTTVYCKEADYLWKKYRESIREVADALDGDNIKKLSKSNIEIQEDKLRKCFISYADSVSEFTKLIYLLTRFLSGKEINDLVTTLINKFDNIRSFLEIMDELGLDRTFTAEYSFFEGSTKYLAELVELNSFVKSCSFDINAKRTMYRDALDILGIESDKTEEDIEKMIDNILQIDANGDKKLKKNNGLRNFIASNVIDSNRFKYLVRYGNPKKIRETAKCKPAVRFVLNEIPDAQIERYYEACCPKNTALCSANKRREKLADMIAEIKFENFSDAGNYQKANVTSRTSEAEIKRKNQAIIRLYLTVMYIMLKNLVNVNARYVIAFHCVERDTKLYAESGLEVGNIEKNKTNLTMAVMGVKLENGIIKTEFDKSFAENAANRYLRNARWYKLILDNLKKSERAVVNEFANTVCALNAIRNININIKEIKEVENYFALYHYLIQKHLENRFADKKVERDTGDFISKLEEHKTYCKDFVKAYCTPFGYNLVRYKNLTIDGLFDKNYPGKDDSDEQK

B1: target 2 MT 5'PFS UUA 3'PFS AUA (mixed)
RNA 1: CACCCGUGCAAAAUUGCAGGGGUCUAAAACCUUCUCCAAAUUGUUUCAUCCU
RNA 2: GGGAAUGGAUCCACAUCUACGAAUUCUUAAGGAUGAAACAAUUUGGAGAAGAUAAGAUCGGAAGAGCACACGU
B2: target 2 MT 5'PFS AUG 3'PFS UCU (mixed)
RNA 1: B1 RNA 1
RNA 2: B1 RNA 2 with U27A, A29G, A52U, U53C, A54U
B3: target 2 MT 5'PFS AGG 3'PFS CGC (mixed)
RNA 1: B1 RNA 1
RNA 2: B1 RNA 2 with U27A, U28G, A29G, A52C, U53G, A54C
B4: target 2 MT 5'PFS GGG 3'PFS CUU (mixed)
RNA 1: B1 RNA 1
RNA 2: B1 RNA 2 with U27G, U28G, A29G, A52C, A54U
B5: target 2 MT 5'PFS AAA 3'PFS CUU (mixed)
RNA 1: B1 RNA 1
RNA 2: B1 RNA 2 with U27A, U28A, A52C, A54U
B6: target 2 MT 5'PFS AAU 3'PFS UUU (mixed)
RNA 1: B1 RNA 1
RNA 2: B1 RNA 2 with U27A, U28A, A29U, A52U, A54U
B7: target 2 MT 5'PFS AGA 3'PFS AUG (mixed)
RNA 1: B1 RNA 1
RNA 2: B1 RNA 2 with U27A, U28G, A54G
B8: target 2 MT 5'PFS GGU 3'PFS AGU (mixed)
RNA 1: B1 RNA 1
RNA 2: B1 RNA 2 with U27G, U28G, A29U, U53G, A54U
B9: target 2 MT 5'PFS AUG 3'PFS UCA (mixed)
RNA 1: B1 RNA 1
RNA 2: B1 RNA 2 with U27A, A29G, A52U, U53C
B10: target 2 MT 5'PFS CGA 3'PFS UAC (mixed)
RNA 1: B1 RNA 1
RNA 2: B1 RNA 2 with U27C, U28G, A52U, U53A, A54C
B11: target 2 MT 5'PFS CGA 3'PFS CCG (mixed)
RNA 1: B1 RNA 1
RNA 2: B1 RNA 2 with U27C, U28G, A52C, U53C, A54G
B12: target 2 MT 5'PFS CGA 3'PFS CCA (mixed)
RNA 1: B1 RNA 1
RNA 2: B1 RNA 2 with U27C, U28G, A52C, U53C
B13: target 2 MT 5'PFS AAA 3'PFS CUC (mixed)
RNA 1: B1 RNA 1
RNA 2: B1 RNA 2 with U27A, U28A, A52C, A54C
B14: target 2 MT 5'PFS GGG 3'PFS CUC (mixed)
RNA 1: B1 RNA 1
RNA 2: B1 RNA 2 with U27G, U28G, A29G, A52C, A54C
B15: target 2 MT 5'PFS CAU 3'PFS UCG (mixed)
RNA 1: B1 RNA 1
RNA 2: B1 RNA 2 with U27C, U28A, A29U, A52U, U53C, A54G
B16: target 2 MT 5'PFS CUU 3'PFS UAA (mixed)
RNA 1: B1 RNA 1
RNA 2: B1 RNA 2 with U27C, A29U, A52U, U53A
B17: target 2 MT 5'PFS AUG 3'PFS UCC (mixed)
RNA 1: B1 RNA 1
RNA 2: B1 RNA 2 with U27A, A29G, A52U, U53C, A54C
B18: target 2 MT 5'PFS ACU 3'PFS CGG (mixed)
RNA 1: B1 RNA 1
RNA 2: B1 RNA 2 with U27A, U28C, A29U, A52C, U53G, A54G
B19: target 2 MT 5'PFS AAU 3'PFS UUC (mixed)
RNA 1: B1 RNA 1
RNA 2: B1 RNA 2 with U27A, U28A, A29U, A52U, A54C
B20: target 2 MT 5'PFS CUU 3'PFS UAG (mixed)
RNA 1: B1 RNA 1
RNA 2: B1 RNA 2 with U27C, A29U, A52U, U53A, A54G
B21: target 2 MT 5'PFS CUU 3'PFS UAU (mixed)
RNA 1: B1 RNA 1
RNA 2: B1 RNA 2 with U27C, A29U, A52U, U53A, A54U
B22: target 2 MT 5'PFS UUA 3'PFS AUG (mixed)
RNA 1: B1 RNA 1
RNA 2: B1 RNA 2 with A54G
B23: target 2 MT 5'PFS GGG 3'PFS CUG (mixed)
RNA 1: B1 RNA 1
RNA 2: B1 RNA 2 with U27G, U28G, A29G, A52C, A54G
B24: target 2 MT 5'PFS ACU 3'PFS CGU (mixed)
RNA 1: B1 RNA 1
RNA 2: B1 RNA 2 with U27A, U28C, A29U, A52C, U53G, A54U
B25: target 2 MT 5'PFS AAG 3'PFS CCG (mixed)
RNA 1: B1 RNA 1
RNA 2: B1 RNA 2 with U27A, U28A, A29G, A52C, U53C, A54G
B26: target 2 MT 5'PFS ACU 3'PFS CGA (mixed)
RNA 1: B1 RNA 1
RNA 2: B1 RNA 2 with U27A, U28C, A29U, A52C, U53G
B27: target 2 MT 5'PFS AAU 3'PFS UUA (mixed)
RNA 1: B1 RNA 1
RNA 2: B1 RNA 2 with U27A, U28A, A29U, A52U
B28: target 2 MT 5'PFS AAG 3'PFS CCA (mixed)
RNA 1: B1 RNA 1
RNA 2: B1 RNA 2 with U27A, U28A, A29G, A52C, U53C
B29: target 2 MT 5'PFS UUA 3'PFS AUU (mixed)
RNA 1: B1 RNA 1
RNA 2: B1 RNA 2 with A54U
B30: target 2 MT 5'PFS AGA 3'PFS AUC (mixed)
RNA 1: B1 RNA 1
RNA 2: B1 RNA 2 with U27A, U28G, A54C
B31: target 2 MT 5'PFS GGG 3'PFS CUA (mixed)
RNA 1: B1 RNA 1
RNA 2: B1 RNA 2 with U27G, U28G, A29G, A52C
B32: target 2 MT 5'PFS CUU 3'PFS UAC (mixed)
RNA 1: B1 RNA 1
RNA 2: B1 RNA 2 with U27C, A29U, A52U, U53A, A54C
B33: target 2 MT 5'PFS ACU 3'PFS CGC (mixed)
RNA 1: B1 RNA 1
RNA 2: B1 RNA 2 with U27A, U28C, A29U, A52C, U53G, A54C
B34: target 2 MT 5'PFS AGA 3'PFS AUA (mixed)
RNA 1: B1 RNA 1
RNA 2: B1 RNA 2 with U27A, U28G
B35: target 1 G5C,A9U (mixed)
RNA 1: CACCCGUGCAAAAAUGCAGGGGUCUAAAACUGAGCGGAUAACCUCUCUAUGG
RNA 2: GGGAAUGGAUCCACAUCUACGAAUUCGUACCAUAGAGAGGUUUUCCCCUCACCGAGAUCGGAAGAGCACACGU
B36: target 1 insG 3' of 18,insG 3' of 6 (mixed)
RNA 1: B35 RNA 1
RNA 2: GGGAAUGGAUCCACAUCUACGAAUUCGUACCAUAGGAGAGGUUAUCCGGCUCACCGAGAUCGGAAGAGCACACGU
B37: target 1 insC 3' of 3,insG 3' of 3 (mixed)
RNA 1: B35 RNA 1
RNA 2: GGGAAUGGAUCCACAUCUACGAAUUCGUACCAUAGAGAGGUUAUCCGCUCGCACCGAGAUCGGAAGAGCACACGU
B38: target 1 insG 3' of 22,insG 3' of 4 (mixed)
RNA 1: B35 RNA 1
RNA 2: B36 RNA 2 with C31G, A32C, U33A, A34U, G35A, G49C, C50G

Each binder was assayed against T1, EsCas13d, nuclease-dead (assay: crRNA (strand 1, pre-loaded); Mg2+; 40 mM Tris-HCl pH 7.5, 150 mM NaCl, 6 mM MgCl2, 1 mM DTT, 0.1% Tween-20, 0.2 mg/ml BSA; 25 C; 10 min per concentration, then washed). Conditions: tags: His6-TwinStrep-SUMO cleaved; N-terminal SNAP kept (SNAP-Surface 488); label: 3' end held by stalled T7 RNA polymerase.

Binder | Kd [nM]
B1 | 27 ± 6
B2 | 17.4 ± 2.6
B3 | 4.7 ± 0.5
B4 | 14.2 ± 1.4
B5 | 3.9 ± 0.6
B6 | 12.4 ± 2.5
B7 | 8.2 ± 1.3
B8 | 17.7 ± 2.6
B9 | 15 ± 5
B10 | 9.5 ± 1.9
B11 | 11.1 ± 1.6
B12 | 31 ± 8
B13 | 6.5 ± 1.2
B14 | 15.5 ± 1.6
B15 | 3.8 ± 0.4
B16 | 3 ± 0.32
B17 | 24.4 ± 2.8
B18 | 3.47 ± 0.28
B19 | 9.7 ± 1.5

Binder | Kd [nM]
B20 | 4.3 ± 0.8
B21 | 3.22 ± 0.27
B22 | 50 ± 13
B23 | 11.7 ± 1
B24 | 8.1 ± 1.3
B25 | 6.3 ± 0.9
B26 | 4.1 ± 0.4
B27 | 6.5 ± 0.8
B28 | 8.7 ± 1.6
B29 | 18.5 ± 1.4
B30 | 9.6 ± 2.3
B31 | 10.9 ± 1.9
B32 | 4.9 ± 0.6
B33 | 7.1 ± 1
B34 | ~5.7
B35 | 11.8 ± 0.6
B36 | 71 ± 28
B37 | 8.5 ± 0.6
B38 | 26.2 ± 2.8
